Consider one molecule from US20200155602A1 (IMMATICS BIOTECHNOLOGIES, published 2020).

This test has as its target T1, HLA-A*02:01 (human).
T1 construct: Peptide-receptive HLA-A*02:01 monomer obtained by UV cleavage of a UV-sensitive ligand; captured on streptavidin plates; also called peptide-receptive MHC molecules; MHC class I
The test can be described thus: UV-ligand exchange, anti-b2m ELISA; grade of peptide exchange yield (>10% = +; >20% = ++; >50 = +++; >75% = ++++). The source says:
Candidate peptides for T cell based therapies according to the present invention were further tested for their MHC binding capacity (affinity). The individual peptide-MHC complexes were produced by UV-ligand exchange, where a UV-sensitive peptide is cleaved upon UV-irradiation, and exchanged with the peptide of interest as analyzed. Only peptide candidates that can effectively bind and stabilize the peptide-receptive MHC molecules prevent dissociation of the MHC complexes. To determine the yield of the exchange reaction, an ELISA was performed based on the detection of the light chain (β2m) of stabilized MHC complexes. The assay was performed as generally described in Rodenko et al. (Rodenko et al., 2006).
96 well MAXISorp plates (NUNC) were coated over night with 2 ug/ml streptavidin in PBS at room temperature, washed 4× and blocked for 1 h at 37° C. in 2% BSA containing blocking buffer. Refolded HLA-A*02:01/MLA-001 monomers served as standards, covering the range of 15-500 ng/ml. Peptide-MHC monomers of the UV-exchange reaction were diluted 100-fold in blocking buffer. Samples were incubated for 1 h at 37° C., washed four times, incubated with 2 ug/ml HRP conjugated anti-β2m for 1 h at 37° C., washed again and detected with TMB solution that is stopped with […]. Absorption was measured at 450 nm. […]
(In general: An ELISA detects its analyte on a solid surface through an enzyme-linked reagent.)

For SLTSFLISL, the peptide exchange yield lay in the range of 50 to 75%.
